A short description of this data set: label from the status in PepcDB records.
As to “MSSSRSSWNTRAETGADVPVIRDIVRAAFPTPEEAALVDALRADAGAWIEGLSLVAVDDSDRPVGHALLTRCHIGDSPALCLAPVAVRPEHQNSGAGAAAVRAALAAAGRLGEHHVVVLGHPEYYPRFGFGRASAHGIRLSIDVPDEALMVLTLDAAHPLPAGTVRYAAPFGI”, the protein production result is on record as “failed”.

Take “MSSSTALAPSTAPNIIQGGMGIGVSSWRLARHVARRGEIGIVSGTGIDSVVVRELQEGDPHDRRQMLADYPDEEIADHLVERFYRPDGLPADEPYDLLNMHPFEPSVRSQRILAAATYTEVRLAAAGHEGMIGMNLLAKLKRYTLPCIYGALLSDIDIVSIGAGIPLEEARQIPKLAAGEPAALRLDVDTSQAPDADDSYAYRFDPADVLDAPPTLDRPLFLPIISSDALARIMDAKLPDRRVDGWVVEGPVAGGHNAPPRNKNYADDGTPLYDERDEADLEAIRSLGKPFYLAGGHGSPEGLRAAHEAGAAGIQVGSLFSLTDESGYPPSTTRRLIRGLHTGEIEVSTEGRVSSTGFPFKVLTADGTLADAEVYERRARICDLGYLREPYLDEEGRLMGRCPAEPVKTYVSRGGAPEETEGRACLCNALMANIGLGQQRGARAEPPLFTGGDALEDLPLGSAEDPQYDADDVLNYLYQDVRPPRVSSPLRRPQPAD”: the protein production result is reported as “failed”.

For the sequence “MSSSTERPALPLNECDPHWLRNLWVCVFGVFTTIVAMTLLLPFLPLYVEQLGVDNHAAVVLWSGATYGATFLSAAITAPLWGRLGDRYGRKLMLIRASLGMAVAMSLIGLAQTVWQLLLLRLLAGLLGGYASGATILVATQTPKARSGWALGVLSSGIMAGSLAGPLMGGVLPPLIGIRNTFFLAGGVIFITFLATLLLLREMPRKAPSRATDSALPAVVKLSGEQRRMITCMFVVASLVMFSTMSVEPIITVYLRQLKTDNVTMMAGVVMSATALGSILAASRLGRLADRIGYLPVLTSCLAMTALTLIPQAWVSNVWQLAALRFFMGLALGGLLPCVAAIIRHTVPNEVAGRMLGYSTSSQYLGQVLGPLAGGLLGGYLGIGSVFLGTAMVLAACSIMVGRMDMIRTPASSKL”, the protein production entry is reported as “failed”.

Turning to “MSSSTNDYNDGNNNGVYPLSLYLSSLSGHQDIIHNPYNHQLKASPGHMVSAVPESLIDYMAFKSNNVVNQQGFEFPEVSKEIKKVVKKDRHSKIQTAQGIRDRRVRLSIGIARQFFDLQDMLGFDKASKTLDWLLKKSRKAIKEVVQAKNLNNDDEDFGNIGGDVEQEEEKEEDDNGDKSFVYGLSPGYGEEEVVCEATKAGIRKKKSELRNISSKGLGAKARGKAKERTKEMMAYDNPETASDITQSEIMDPFKRSIVFNEGEDMTHLFYKEPIEEFDNQESILTNMTLPTKMGQSYNQNNGILMLVDQSSSSNYNTFLPQNLDYSYDQNPFHDQTLYVVTDKNFPKGKVWIQDSFVN”, the protein production result is recorded as “failed”.

On to “MSSVGDFEEIILHDLKPYYHVPGAIHSEGITFVKETGTLLWVDIFKGEVHKVEDIEQPESSHSFFSISRANYGKNASIEYPPNPDELKESVGCIFPILDGASQNEIKQVLFGSKFGIGKLDFSKSEWEYVILYSECPELSTDRAYKLRSNDGNVSPDGKYIYVGLMSDFPFDLEPIGCLLRVDLLAHKIELVWNCLLIPNAIHWDESDQKTMYVTDSLNFTIWKCPGGDLLKRDELIDVKNSNNQSFESPEPDGSAIWFSKDGKHSGFLFITVWSTSKVQMFDLTNGKLLKEFILPEQTPRVSCCCFVGKDLFVTTANAEINDAVRTNTDKNGGCIYKIPNVLDGNVPLESTKRQPLH”, for which the protein production entry is reported as “failed”.

In the case of “MSSVLSFALAAWRRLRGYRDSLEVAGGLLAGNLFDTINMVVISMFSNYLVGQRGLLALYPQLSALTGGLLLSLSSRAISNHVLGGAGPEVYLTGLAVSAASGIFLTTVFSTATSIALGLEPVMMVPAALITLLGVLLVLTLLTWIIIVMLLRLGVSPDNVMPAILTSIIDMAVLILAIVAFSMVSRMDEGIYLVAVVTFSLALAFSAAAYDFRLTIDTTFSNFALQVVEMIAGVLLSATAPVLAATGLLPVLPPLNKLAGSVAGSMASAATTSVSLYGHYLDLPSMISTLFKITVGAIPSALYIGVIGYVLASVGEGSVGPQIVLASLLVSIVLSILGSLIAWLLVVVSIRAGLDPDAIAMPLATSLVDLLGVVSLSVVAWILLST”, the protein production entry was “failed”.

Regarding “MSTASYAFRDNLTMLRRNLLHARRYPSLTLNLLLTPVILLLLFVYVFGNVMSAGINGGHANRADYVDYLVPGILLLTVAMTSLGTAVAVCTDMTEGIMARFRTMAISRASVLIGHVIGSVLQTLMALVLVLGIGLAIGFRPDASPVEWIAAAALMALTSLAMTWLAVGIGLVSPNPEGASNIGTPLVMLPFLSSAFVPVDAMPGWFRWFAEYQPFSPLIETLRGLLLGSGIGTRNAVLAVAWCLGLSLLGYLWSKARFNREPRH”, the protein production entry is given as “failed”.

As to “MSTATLPHTVGKRLFRQTLLLALALSVVFSAVFTVVEYYRSKVSLNESVELLKKTHLDAITAALWSLDRQQIAAQIDGIHHYPFISYVAVVDQGGVVVESGTRSELFGDVRRIDLTATYNGRQVSLGSLYLEIDRQAIMRDALSTAAVTLLFQTLTITIVMLFTFMLFERQVTRHLAAAADYFTSFGFARVQQPLQLDKHRYGDEIDALVEAFNRMRESLAVAYQQQQGMLQAVRESEALLRAIARRIPNGGVWVVDTDGRYIMFEGSLVESLGLSGQEALGRMPGDLFGEPLADRLVGCYRLALAGGTLSEEIEYRERVLWIQFAPLEDEHGAVMAAVALGIDVTERRQAEAERREMLQRLGQAHKMEAVGRLAGGIAHDYNNKLTVILGYAHVLKLTGFQSKEAPEQLDQIIRAAEHSRDITRQLLAFTRSERVNPVRVDLNRLISQSSKSLTRLIGEDITLSHVAGADLWPVRIDPTQADQLLMNLVMNARDAIAGTGSVTIATSNVVLDRATVRHLQGASPGEYVLMTVSDTGCGMDPEVMEHIFEPFYTTKEMGKGTGLGLATVYGIVRQNGGAISVESEPGGGSVFSIYLPRFVGESHDVRRLGEVDETLPARTTLLVDDDDAVRDITALMLRRLGHTVITASDPDEAIHLCQQPGIVVDLILTDVIMPSMNGREMVRSILSHQKAAKVLYMSGYPADVVEGRGAVDADARLLSRLLKLK”, the protein production result was “failed”.

Consider “MSTDDPRFAGIARLYGIEGLARLRAAHVAIVGIGGVGSWAAEAMARSGVGEISLFDMDDVCVSNSNRQLHALDTTVGRPKVEVMAERIRAINPDCVVHAVSDFVTRDTMAECITPDMDFVIDCIDSVNAKAALISWCKRRKIQMVTTGAAGGQIDPTLIQIADLNRTFNDPLASKVRSTLRRDYGFSRTPNRHYSVPCVFSTEQLRYPKPDGSICLEKKFIGDGVKLDCAGGFGAVMMVTATFGMIAATRAVDKLVAGTRRPSERAKPAAVTANQA”, for which the protein production entry is listed as “failed”.

In the case of “MSTETIEIFNNSDEWANQLKHALSKGENLALLHGLTPDILDRIYAYAFDYHEKGNITDAEIYYKFLCIYAFENHEYLKDFASVCQPKKKYQQAYDLYKLSYNYFPYDDYSVIYRMGQCQIGAKNIDNAMQCFYHIINNCEDDSVKSKAQAYIELLNDNSEDNGLEHHHHHH”, the protein production entry is recorded as “failed”.

Turning to “MSTIFDTHWPWMGIGIACVLIILLFFTNTLRSDLRVNRWYDPFWLAWFSSTAYFIHNFEEYGIDLFGRHFEFPHLMTQTMHITPEISFFTMINIPLIWIAGPILAMMSKHRPVISLIMTGLMFTNALSHIVPLISSGMYTSGLFTSIVIFIPGSLWIYYIRFIKGNLRWSILIVSLIPPIITQGLLMLSILMYRNDFLNDTTVTVFELLNGCLFIIIAFIMEKSFKRKYKN”, the protein production result is “failed”.

Consider “MSTKGTILVTGGAGYIGSHTAVELLAHGYDVVIADNLVNSKREAIARIEKITGKTPAFHETDVSDERALARIFDAHPITAAIHFAALKAVGESVAKPIEYYRNNLDSLLSLLRVMRERAVKRIVFSSSATVYGVPERSPIDETFPLSATNPYGQTKLMAEQILRDVEAADPSWRVATLRYFNPVGAHESGLIGEDPAGIPNNLMPYVAQVAVGKLEKLRVFGSDYPTPDGTGVRDYIHVVDLARGHIAALDALERRDASLTVNLGTGRGYSVLEVVRAFEKASGRAVPYELVARRPGDVAECYANPAAAAETIGWKAERDLERMCADHWRWQENNPRGFV”, for which the protein production result is “not failed”.

As for “MSTKSKIFLVLLVFCPLSFAAHWLGWGETTVFILAGLAIVPLAAFMGTATEEIAVVIGPNAGGLLNATFGNATELILAYIALKEGLIEVVKATLTGSIIGNLLLVMGFAVFLGGLRYKEQNFQPLAARLNASTMNLGVVAILLPTALQYTSTGVEETVLQNLSVAVAVVLIGVYLLSLVFSMGTHAYLYDVGVAENMEMPELGEDVSEPEPPTEEEKPNLWLWTGVLLVVTLGVAVESELLVGSLEVATESLGLTALFTGVIVLPIIGNAAEHATAVTVAMKDKMDLSMSVVMGSSLQIAFFVAPVLVIVGWAIGQPMDLNFNPFELVAVLVAVLIVNSISSDGTSNWLEGILLLATYAIVALAFFFHPTLV”, the protein production entry was “failed”.

As to “MSTLKLFVHNHSSKGDQSFLKTITFAITHFTVAFTVAYLLTGDILIGSLIAMVEPAINTVAYFFHEKIWARHQRNTTANAMNLRQNTH”, the protein production result is “failed”.

“MSTPSHLNAQPLVWGHGPRTFEVFLEPTCPYSVRAFNKLDDLLDEVGADNVTIKIRLQSQPWHLFSGVIVRCILAASTLPHGREQAHKVMQAVADHREEFEFTDHCSGPNMNATPQQIIERIERYSHVLLGAAFARPELQDVIKWHSKYARQNGIHVSPTFMVNGLVQPDLGSGDDVSVWAARIMA”: the protein production entry was “failed”.

In the case of “MSTPSPALFFNTVNAYQRSAAIKAAVELNVFTAISQGIESSQSLAQKCQTSERGMRMLCDYLVIIGFMTKQAEGYRLTSDSAMFLDRQSKFYVGDAIEFLLSPMITNGFNDLTAAVLKGGTAISSEGTLSPEHPVWVQFAKAMSPMMANPAQLIAQLVNENKIEPLKVLDISASHGLFGIAVAQHNPNAEIFGVDWASVLEVAKENARIQGVASRYHTIAGSAFEVDYGNDYDLVLLPNFLHHFDVATCEQLLRKIKTALAVEGKVIVFDFIPNSDRITPPDAAAFSLVMLATTPNGDAYTFAEYESMFSNAGFSHSQLHSLPTTQQQVIVAYK”, the protein production result is recorded as “not failed”.

Take “MSTPTPDTDVEQVGLANTAFYEAMERGDFETLSSLWLTPADLGVDEEYHDPADAGVVSCVHPGWPVLSGRGEVLRSYALIMANTEYIQFFLTDVHVSVTGDTALVTCTENILSGGPPPDDSDELGPLVGQLVVATNVFRRTPDGWKLWSHHASPVLAETGAEEGDESPD”: the protein production result is “not failed”.

In the case of “MSTRWLLLAAFAAGAALFSSFLKALFFAACLACAFRPLSRRLEAWRGPLVAAGLTTALAGMCLVIPVAVVGSLAAPQAVQGLAVLDGLRESNWFTSPEAQQLVDDIDARLRDLPGLEGGLRGLARNAAGILGTAARTALAGGVGLAGGALNAVLQGFIVLMLIFVFTAYARHIQRFALALLPMPRAMLDRCVTAFRGAVVGVLAGVVLVAAIQGVLCGIGFAVAGVPQAAFWGFIAAMVAPIPVVGTMAVWIPACAWLWFAGKTTAAIGLVLWSAIIVSGSDNILRPIFLKTGIEAPIALIFLAIICGLAAFGPMGLLLGPVLLALGLQLAREGLPGAPGVSGVSGAVEPRE”, the protein production entry was “failed”.

Regarding “MSTSAIDPVSFSLYAKDFTRFAQELGASFERYGFAVLSDYDLDQARIDAAVDSAKAFFALPVETKKQYAGVKGGARGYIPFGVETAKGADHYDLKEFWHMGRDLPPGHRFRAHMADNVWPAEIPAFKHDVSWLYNSLDGMGGKVLEAIATYLKLERDFFKPTVQDGNSVLRLLHYPPIPKDATGVRAGAHGDINTITLLLGAEEGGLEVLDRDGQWLPINPPPGCLVINIGDMLERLTNNVLPSTVHRVVNPPPERRGVPRYSTPFFLHFASDYEIKTLQNCVTAENPDRYPESITADEFLQQRLREIKLA”, the protein production result was “not failed”.

Values taken from a protein production outcome set (Wang et al. 2014).
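Also: failed if final PepcDB status was selected cloned or expressed and not failed if soluble or beyond.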
